Measurements: IntAct's records for PubMed 19513107

B1: STE20-related kinase adapter protein alpha (Homo sapiens), Q7RTN6-1 (parent)
chain: MSFLVSKPERIRRWVSEKFIVEGLRDLELFGEQPPGDTRRKTNDASSESIASFSKQEVMSSFLPEGGCYELLTVIGKGFEDLMTVNLARYKPTGEYVTVRRINLEACSNEMVTFLQGELHVSKLFNHPNIVPYRATFIADNELWVVTSFMAYGSAKDLICTHFMDGMNELAIAYILQGVLKALDYIHHMGYVHRSVKASHILISVDGKVYLSGLRSNLSMISHGQRQRVVHDFPKYSVKVLPWLSPEVLQQNLQGYDAKSDIYSVGITACELANGHVPFKDMPATQMLLEKLNGTVPCLLDTSTIPAEELTMSPSRSVANSGLSDSLTTSTPRPSNGDSPSHPYHRTFSPHFHHFVEQCLQRNPDARPSASTLLNHSFFKQIKRRASEALPELLRPVTPITNFEGSQSQDHSGIFGLVTNLEELEVDDWEF
partner: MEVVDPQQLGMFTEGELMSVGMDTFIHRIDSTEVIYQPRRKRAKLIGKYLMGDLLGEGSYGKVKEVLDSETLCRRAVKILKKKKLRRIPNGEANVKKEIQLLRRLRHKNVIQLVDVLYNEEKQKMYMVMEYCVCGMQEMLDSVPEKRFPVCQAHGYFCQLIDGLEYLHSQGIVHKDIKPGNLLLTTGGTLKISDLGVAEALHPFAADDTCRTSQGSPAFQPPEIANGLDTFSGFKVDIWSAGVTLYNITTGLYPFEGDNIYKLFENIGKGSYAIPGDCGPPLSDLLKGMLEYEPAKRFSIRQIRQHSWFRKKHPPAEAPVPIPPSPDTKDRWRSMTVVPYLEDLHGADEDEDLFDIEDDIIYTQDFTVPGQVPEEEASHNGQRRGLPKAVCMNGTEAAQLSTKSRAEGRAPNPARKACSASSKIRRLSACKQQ
B2: STE20-related kinase adapter protein alpha (Homo sapiens), Q7RTN6-1 (parent)
chain: B1 chain
partner: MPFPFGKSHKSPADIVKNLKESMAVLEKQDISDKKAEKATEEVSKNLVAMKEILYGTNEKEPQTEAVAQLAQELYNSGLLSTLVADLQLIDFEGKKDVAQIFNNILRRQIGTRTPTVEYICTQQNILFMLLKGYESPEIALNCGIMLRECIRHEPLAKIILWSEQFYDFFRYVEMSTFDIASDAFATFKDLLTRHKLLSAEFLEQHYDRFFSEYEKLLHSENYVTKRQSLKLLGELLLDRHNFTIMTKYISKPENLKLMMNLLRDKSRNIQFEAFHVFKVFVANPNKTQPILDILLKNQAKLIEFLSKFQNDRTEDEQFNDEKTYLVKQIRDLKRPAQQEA

Variants of: B1
Details: with stk11_human STK11, Q15831

Row | Variant | effect of a mutation on the interaction
1 | G76D;G78D;R215E | decreasing interaction

Variants of: B2
Details: with cab39_human CAB39, Q9Y376

Row | Variant | effect of a mutation on the interaction
2 | N109A | decreasing interaction
3 | I138Q | disrupting interaction
4 | N126G | decreasing interaction
5 | E105A | disrupting interaction
6 | Y185F | disrupting interaction
